The chains are these.
B1: BD55-5215 (antibody, V domains shown)
VH: EVQLVESGGGLGQPGGSLRLSCAASGFTFSRYGMGWVRQAPGKGLEWVSVISGSGGATYYADSVKGRFTISRDNSKNTLFLQMNSLRVEDTAVYYCAKDGGQLQLVEIFTFDPWGRGTLVTVSS
VL: DIQMTQSPSSLSASVGDRVTITCRASQGIRNSLAWYQQKPGKAPKLLLYAASRLESGVPSRFSGSGSGTDYTLTISSLQPEDFATYYCQQYYSAWTFGQGTKVEIK
B2: BD55-5226 (antibody, V domains shown)
VH: EVQLVESGGGLVKPGGSLRLSCAASGFTFSSYSMNWVRQAPGKGLEWVSSISMTSSYRHYADSVRGRFTISRDNANNSLFLQMNSLRAEDTAVYFCARDSNLRTGDANDYWGQGTLVTVSS
VL: not shown
B3: BD55-5228 (antibody, V domains shown)
VH: QVHLVQSGSELKKPGASVKVSCKSSGHTFTIFAINWVRQAPGQGLEWMGWINTNTGNPTYAQGFTGRFVFSLDTSVNTAYLQISSLQPEDTAVYYCVGSNWGDYYFDPWGQGTLVTVSS
VL: EIVMTQSPATLSVSPGERATLSCRASYSLSSNLAWYQQKPGQAPRLLIYGASIRATGFPARFSGNGSGTEFTLTISSLQSEDFAVYYCQQYTSWPLTFGQGTKVEIK
B4: BD55-5233 (antibody, V domains shown)
VH: EVQLLESGGGLVQPGGSLRLSCAASGFTFSRSSMGWVRQAPGKGLEWVSTISEDGYTPYYADSVKGRFTISRDNSENRLFLQMNGLRAEDTALYYCAKDVDFDKWRQTCFDSWGQGALVTVSS
VL: QSVLTQPPSVSGAPGQRVTISCTGSNSNIGAGYDVHWYQQLPGTAPKLLIYGNNNRPSGVPDRFSGSKSGTSASLAITGLQAEDEADYYCQSYDSSLNVLYVFGTGTRVTVL
B5: BD55-5236 (antibody, V domains shown)
VH: QVQLVQSGAEVKKPGSSVKVSCKASGGTFTSQAISWVRQAPGQGLEWMGRIITVLGTTTYAQKFQGRLRITADRSTNTAYMDLTGLTSDDTAVYFCARDLDGYSGYDFGSSERRDSFYFDYWGQGTLVNVPS
VL: SSELTQDPPVSVALGQTVRITCQGDSLRTYYASWFQQKPGQAPLLVVYGKNYRPSGIPARFSGSFSGNTASLTITGAQAEDEADYYCNSRDSNNDHHVIFGGGTKLTVL
B6: BD55-5219 (antibody, V domains shown)
VH: QVQLVQSGSELKRLGASVTLSCKASGYTFTNYAINWVRQAPGHGLQWMGWINPDTGTPTYAQGFAGRFVFSLDSSVSTSYLQIRSLKADDTAVYYCARDANQWPRNQWFGPWGQGTLVTVSS
VL: DIVLTQSPDSLAVSLGERATINCKSSHSVFYSSSNQNDLAWYQQKPGQPPKLLIYWASIRESGVPDRFSGSGSGTDFTLTISSLQAEDVAVYYCQQHYSTPLTFGGGTKVEIK
B7: BD55-5238 (antibody, V domains shown)
VH: QEQLVESGGGVVQPGRSLRLSCAASGLTFSSYAMHWVRQAPGKGLEWVAVIWYNGLKKYYADSVKGRFTISRDNYKNTAYLQMSSLRAEDTAVYYCAREGGGDILTGNEFEFWGQGTLVTVSS
VL: QSVLTQPPSVSGAPGQTVTISCTGGSSNTGAGYDVHWYQQLPGTAPKLLIFANKNRPSGVPDRFSGSKSGTSASLSITGLQAEDEGDYYCQSYDSSLSGWVFGGGTKVTVL
B8: BD55-5223 (antibody, V domains shown)
VH: EVQLLESGGGWVQPGGSLRLSCAASGFTFSSYAMSWVRQAPGKGLEWVSAISNTGGSTYYADSVKGRFTVSRDDSKNTLYLQMNSLRAEDTAVYYCAKNWDSIGYTSGWQHLDWFDPWGQGTLVTVSS
VL: DIQMTQSPSSLSASVGDRVTITCRASQSINTYLNWYQQKPGKAPKLLIYVASSLQSGVPSRFSGSGSGTDFTLTISSLQPEDFATYYCQQSYSSPSITFGQGTRLEIK

This experiment addresses SARS-CoV-2 (WT) Spike RBD Protein (His Tag) (SARS-CoV-2 ancestral (Wuhan-Hu-1), UniProt P0DTC2).
Consider B1, for which the binding result is recorded as “binds”.
Take B2: the binding result was “binds”.
Take B3: the binding result was “binds”.
The entry for B4 is “binds”; for B5 it is “binds”.
Consider B6, for which the binding result was “binds”.
Regarding B7, the binding result is on record as “binds”.
Next, B8: “binds”.

The values are drawn from publication PMC9712074 (Cell Reports, 2022).
